Experimental data published in the supplement of paper PMC9170038.

These sequences were tested on MS2 coat protein (assay: apparent KD of MS2 coat protein, switch OFF state (with FMN for OFF switches, without FMN for ON switches); designed switch direction (-1 OFF switch, 1 ON switch): -1; higher = weaker reporter binding). Details: FMN input: 0 or 200 uM; Eterna round: R93 (includes R88 designs).
Procedure, shortened: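 The buffer was 100 mM Tris-HCl pH 7.5 with 80 mM KCl and 4 mM MgCl2, used without or with constant ligand. In it, RNA switches transcribed on-chip from Illumina sequencing clusters were titrated with SNAP-549-labelled MS2 coat protein in twofold steps from 0.7 or 1.5 nM to 3 µM. Apparent KD for each design is the median of its normalised cluster binding-curve fits.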

Sequence	apparent KD of MS2 coat protein
AAAAAAAAAGGAUAUACAGGAGGUAAGGUCGGACAAAAAAGACAUGAGGAUCACCCAUGUAGAAGGUUUAAAAA [Excls2-X]	35.1 nM
CAGUACUGAGGAUAUACAUGAGGAUCACCCAUGUGAUCAAGCUACGAAAGUAGCACAUGUAGAAGGCAGUACUG [Ex3: 808]	19.1 nM
AAAAAGGGAGGAUAUACAUGAGGAUCACCCAUGUAAAAAAUCGCGGGAGGGAGGGAAGGUAGAAGGCCCAAAAA [Excls3-V]	15.5 nM
AAGAACCUAGGAUAUACAUGAGGAUCACCCAUGUAAAAGAAAGAAAGGGAAAAGAAAAGUAGAAGGAGGAAGAA [Heqakheperre Shoshenq II]	15.7 nM
GGAAAACAUGAGGAUCACCCAUGUGAGGAUAUCGAUGUCCAAAAGAAAGUGCGGGACUCGAGAAGGCACUUGGA [salish99-ex1-36]	45.8 nM
UCCGAACAUGAGGAUCACCCAUGUCAGGAUAUACACCCAGCAUGGAAGCCAUGCUCAAGUAGAAGGGACGGGUG [Inxeus]	34.9 nM
AACAUGUCAGGAUAUGUGGAAAGAAUAAAAGAAAUAAGAACACAGAAGGGACAUGAGGAUCACCCAUGUCAACA [May 31]	25.7 nM
AAAAAUGGAGGAUAUACAUGAGGAUCACCCAUGUGAAACAAAACAAAAAACAAAAAAAGUAGAAGGCCAAAAAA [Gilly Gone Silly 3 - Jieux - Exclusion 3]	40.1 nM
AAAACUGGAGGAUAUACAUGAGGAUCACCCAUGUGUGGAUGAGCUGUGUCGGCAUCACGUAGAAGGCCACAAAA [Gilly Gone Silly 38 - Jieux - Exclusion 3]	53.3 nM
AACAUGUAAGGAUAUGCUGCUCGUCACAAAAGUGAUGAGUAGCAGAAGGUACAUGAGGAUCACCCAUGUAAAGA [JL eternac mod 14]	111 nM
AAAAUACAUGAGGAUCACCCAUGUGAGGAUAUGAGAAAGCAAAUAAAAUAAAGCAAACUCAGAAGGCACAAAAA [EX 1 May 25]	50.2 nM
AAAUGACAUGAGGAUCACCCAUGUCAGGAUAUGACUUGAAAAAUAAAAUAAAAACAUGUCAGAAGGGACAUGAA [Design 47: Sub-opt E]	17.6 nM
AAGAAGUCAGGAUAUGCUUGUCGUCACAAAAGUGAUGACGAGCAGAAGGGACAUGAGGAUCACCCAUGUAAAGA [JL eternac mod 1]	41.9 nM
GAAAAGUGAGGAUAUUCGGAAGGGAAAGCGCAAACCCAACCGAAGAAGGCACAUGAGGAUCACCCAUGUGGAAG [Mat - Exaclusion 4 - Eli mod - D58]	28.7 nM
AAUAACAGAGGAUAUGCGAAAAUAAGCGGAAACGCAAAGGGACAUGAGGAUCACCCAUGUAGAAGGCUGGAUAA [Tetraloop... 61% 1]	29.5 nM
AAGAAGUCAGGAUAUACAUGAGGAUCACCCAUGUAAAAGAAAGAGGGAAAAGAGAAAAGUAGAAGGGACAAGAA [Arsinoe I]	32.1 nM
AUUCUACAUGAGGAUCACCCAUGUGAGGAUAUGCUAUACUAUUGUUGCAAUACUUAGAGCAGAAGGCACAUCGU [JR_EXc001_Sub801]	66.2 nM
AAGACUAGAGGAUAUACAUGAGGAUCACCCAUGUAACUGUCAGGAAACUGACGGAGAUGUAGAAGGCUAGUCAA [Mat - Exclusion 3 - Neo mod - D75]	38.4 nM
AAAAAGGGAGGAUAUACAUGAGGAUCACCCAUGUAAAACAAAAAAACAAAAAAAAAAAGUAGAAGGCCCAAAAA [Default title]	24.6 nM
AAGAACUCAGGAUAUACAUGAGGAUCACCCAUGUAAAAGAAAGAGGGAAAAGAGAAAAGUAGAAGGGAGAAGAA [Ptolemy IV Philopator]	46.9 nM
AAAGGACGAGGAUAUACAUGAGGAUCACCCAUGUAAAAAACAUAGUCAAAGGGCUUGUGUAGAAGGCGUCCAAA [Meechl Ex3 2 R2 v11]	229 nM
AAUAUGUUAGGAUAUGCGAAGUCAGGACACACACUGACGAAGCAGAAGGAACAUGAGGAUCACCCAUGUAAUAA [JR_Exclusion-4 65% 6]	26.6 nM
AGAAAGUCAGGAUAUGCGAAGGCGUCUGAUAGACGAGGCUAGCAGAAGGGACAUGAGGAUCACCCAUGUGAAAA [Mat - Exclusion 4 - Eli mod - D86]	133 nM

Sequence	apparent KD of MS2 coat protein
GCUGUCGUAGGAUAUACAUGAGGAUCACCCAUGUGAGAGAAAAAAGUGAGAAAGAAAAGUAGAAGGACGGUAGG [salish99-ex3-105]	43.1 nM
AAAAAACAUGAGGAUCACCCAUGUGAGGAUAUGCGAAACAAAAAAAACAAAAACAAAAGCAGAAGGCACAAAAA [Amethyst 33]	25.7 nM
ACCUCACAUGAGGAUCACCCAUGUUAGGAUAUGCCCGGCAGGUUCUGACCUGCCUAAAGCAGAAGGAACGUGCG [Beusus]	57.9 nM
AAAACAAAAGGAUAUAAAAACAAAAGUCAGGAUAUAGGAAACUAGAAGGGACAUGAGGAUCACCCAUGUAAAAC [Meechl Ex4 R2 m3]	44.5 nM
AAGAAGCAAGGAUAUACAUGAGGAUCACCCAUGUAAAAGAAAGAAAAGGGAAAGAAAAGUAGAAGGUGCAAAGA [Ruby 69]	72.8 nM
AAAAAGGUAGGAUAUACAUGAGGAUCACCCAUGUAAAAAAACGCAGAAAAAAACAAUUGUAGAAGGGCCAAAAA [Ex3 Malc#6]	10.6 nM
AAGAAGCGAGGAUAUACAAAAUAAAAGAAAAGAAAGAAAGAACAUGAGGAUCACCCAUGUAGAAGGCGUAAGAA [Sankhenre Sewadjtu]	11.1 nM
AAAAAUGGAGGAUAUACAUGAGGAUCACCCAUGUGUGGCCAUACUAUGUGGUCGUCAGGUAGAAGGCCAAAAAA [Gilly Gone Silly 23 - Jieux - Exclusion 3]	178 nM
AAUAAGUCAGGAUAUGCAAAUAAUAAAUAAAAUAAAAUAAAGCAGAAGGGACAUGAGGAUCACCCAUGUAAAUA [Opal 40]	41 nM
AAAAAACAUGAGGAUCACCCAUGUCAGGAUAUCUGUAUUCAAUCCUCGGAUUGAAUACAGAGAAGGGAUAUGAA [Ex1: 604]	62.2 nM
AAAAAACAUGAGGAUCACCCAUGUGAGGAUAUCGGUAGUGAGGCUAUAGUGUCAGUAAUGAGAAGGCACAUAAA [Brourd 613 Mod 11 - Jieux - Exclusion 1]	29.7 nM
AAAAAUUGAGGAUAUACGAACAUGUCGAAAGACGUGAAGGGACAUGAGGAUCACCCAUGUAGAAGGCGAAAGAA [Mat - Exclusion 2 - JL mod - D67]	18.2 nM
AAUAUCGGAGGAUAUGCAUAGAUAAAGAACCAUGUUAAAACACAUGAGGAUCACCCAUGUAGAAGGCCGAUAAA [AJ 9]	77.5 nM
AACAUGUCAGGAUAUGUAGCAAAAGGUGAUCAAAAAAAGCUACAGAAGGGACAUGAGGAUCACCCAUGUAAAAA [Ex4: 934]	37.1 nM
AACAGUACAGGAUAUACAUGAGGAUCACCCAUGUGAUAGGAAUAAAACAAAAAUAAAAGUAGAAGGGUACUGGA [Ruby 46]	145 nM
AAAAAACAAGGAUAUACAAAAAUAAAAAGAAUAAAGUGAAAACAUGAGGAUCACCCAUGUAGAAGGUGUAAAAA [Default title]	44.8 nM
AUAAACUGAGGAUAUACAUGAGGAUCACCCAUGUAAAAAAAAAAAAGUUCCUCAAAAAGUAGAAGGCAGAAUAA [JR_Exc003_Sub013]	19.4 nM
GGAAAACAUGAGGAUCACCCAUGUAAGGAUAUGCAAAAAAAAGGAUAUAGAAGGAAAAGCAGAAGGUACAAAGG [salish99-ex1-26]	38.2 nM
AAGUGGGCAGGAUAUACAUGAGGAUCACCCAUGUAAAGAAAAGAAAGAUCCGAAGAAAGUAGAAGGGCCUGCAA [Mod 1 of Ex3 sub 3, by Tesla's Dusciple Round 1]	137 nM
GUGUACAGAGGAUAUACAUGAGCAUGGAAUCAUGCAGGAUCACAUGAGGAUCACCCAUGUAGAAGGCUGUACAC [LROPPY Exclusion 2 - v06_mod Brourd]	39.8 nM
AAGAAGUCAGGAUAUGCUGCUCGUCACAAAAGUGAUGAGUAGCAGAAGGGACAUGAGGAUCACCCAUGUAAAGA [JL eternac mod 0]	67.5 nM
AAACAACAUGAGGAUCACCCAUGUUAGGAUAUGAACGAAAUAAAAUAAAAAUAAAAGUUCAGAAGGGACAAAAA [Mat - Exclusion 1 - Eli mod - D21]	25.6 nM
